B1: Motavizumab IgG (antibody, V domains shown)
VH: QVTLRESGPALVKPTQTLTLTCTFSGFSLSTAGMSVGWIRQPPGKALEWLADIWWDDKKHYNPSLKDRLTISKDTSKNQVVLKVTNMDPADTATYYCARDMIFNFYFDVWGQGTTVTVSS
VL: DIQMTQSPSTLSASVGDRVTITCSASSRVGYMHWYQQKPGKAPKLLIYDTSKLASGVPSRFSGSGSGTEFTLTISSLQPDDFATYYCFQGSGYPFTFGGGTKVEIK
B2: 2D10 IgG (antibody, V domains shown)
VH: QVQLVQSGPEVKKPGASVRLSCKASGYVFTNYGVSWVRQAPGQGLEWMGWSSPYNGNTYYAQKLKARVTMTTDTSTNTAYMELRSLRSDDTAVYYCGRDMLGVVQAVAGPFDSWGQGTLVTVSS
VL: DTPMTQSPSSVSASVGDRVTISCRASQGISNSLAWYQQKLGKAPQLLIYAASSLQSGVPSRFSGSGSGTDFTLTISSLQPEDFATYYCQQTNTFPFTFGPGTKVEVR

Target: T1, 4H.01 (synthetic construct (de novo design))
T1 chain: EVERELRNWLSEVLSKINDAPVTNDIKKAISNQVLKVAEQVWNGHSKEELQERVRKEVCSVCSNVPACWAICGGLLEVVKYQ
Test: SPR

Binder	Kd
B1	0.5 nM
B2	200 nM
